Positions count from the first letter of the chain named. Names and notes keep the numbering of the source.
B1: D11-C27G3 (antibody, human IgG2, kappa, V domains shown)
VH: QVQLVQSGAEVKKPGSSVKVSCKASGYTFTSRYIHWVRQAPGQGLEWMGWIYPVTGDTYYREPFKGRVTITADKSTSTAYMELSSLRSEDTAVYYCARGYGAFYYWGQGTLVTVSS
VL: EIVLTQSPGTLSLSPGERATLSCSVSSSISSTNLHWYQQKPGQAPRLLIYGTSRLRSGIPDRFSGSGSGTDFTLTISRLEPEDFAVYYCQQWSSYPYSFGQGTKLEIKR
B2: D11-S17Y (antibody, human IgG2, kappa, V domains shown)
VH: B1 VH with R61N, P63K
VL: B1 VL with R54Y, R56A

Legend:
human c-Met [1] = biological target: T1, human c-Met (human, UniProt P08581 25-1390); assay: cell-based or functional assay
T1 sequence (P08581 25-1390): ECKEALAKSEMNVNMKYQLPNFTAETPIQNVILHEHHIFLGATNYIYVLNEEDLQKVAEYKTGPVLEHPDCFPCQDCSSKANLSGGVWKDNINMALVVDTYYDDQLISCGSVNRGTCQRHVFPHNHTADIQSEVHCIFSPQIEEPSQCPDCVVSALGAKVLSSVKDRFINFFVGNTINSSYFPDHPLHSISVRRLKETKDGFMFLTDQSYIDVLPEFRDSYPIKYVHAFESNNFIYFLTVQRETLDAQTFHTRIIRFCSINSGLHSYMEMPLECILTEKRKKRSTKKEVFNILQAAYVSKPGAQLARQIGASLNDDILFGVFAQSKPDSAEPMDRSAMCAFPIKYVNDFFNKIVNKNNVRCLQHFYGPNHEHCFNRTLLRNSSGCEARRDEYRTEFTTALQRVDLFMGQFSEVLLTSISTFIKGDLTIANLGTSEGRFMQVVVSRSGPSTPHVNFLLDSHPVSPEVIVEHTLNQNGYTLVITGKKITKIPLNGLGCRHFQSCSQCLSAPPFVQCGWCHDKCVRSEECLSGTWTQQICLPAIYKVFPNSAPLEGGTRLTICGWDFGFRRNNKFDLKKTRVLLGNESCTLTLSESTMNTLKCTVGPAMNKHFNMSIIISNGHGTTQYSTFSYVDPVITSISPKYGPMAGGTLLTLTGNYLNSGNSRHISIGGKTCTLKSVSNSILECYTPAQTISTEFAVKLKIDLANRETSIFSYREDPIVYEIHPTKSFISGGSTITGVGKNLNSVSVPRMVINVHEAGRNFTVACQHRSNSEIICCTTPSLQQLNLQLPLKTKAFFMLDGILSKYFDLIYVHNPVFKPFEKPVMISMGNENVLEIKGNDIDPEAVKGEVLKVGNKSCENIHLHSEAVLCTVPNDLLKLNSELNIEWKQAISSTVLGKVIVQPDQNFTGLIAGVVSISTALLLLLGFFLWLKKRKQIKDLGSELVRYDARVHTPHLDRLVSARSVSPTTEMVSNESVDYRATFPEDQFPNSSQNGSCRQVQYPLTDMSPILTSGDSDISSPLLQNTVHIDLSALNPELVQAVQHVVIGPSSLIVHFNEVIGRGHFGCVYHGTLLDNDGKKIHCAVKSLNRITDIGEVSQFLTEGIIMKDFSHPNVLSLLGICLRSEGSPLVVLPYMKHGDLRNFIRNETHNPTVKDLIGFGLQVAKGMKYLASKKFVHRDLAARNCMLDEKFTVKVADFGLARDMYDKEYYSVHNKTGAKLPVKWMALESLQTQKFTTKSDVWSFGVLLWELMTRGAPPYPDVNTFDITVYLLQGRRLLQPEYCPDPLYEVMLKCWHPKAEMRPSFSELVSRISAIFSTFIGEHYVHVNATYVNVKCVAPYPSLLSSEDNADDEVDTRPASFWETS

human c-Met [2] = biological target: T1, human c-Met; assay: cell-based or functional assay; remark: listed apart in the source

Row | Binder | 3H-Thymidine Incorporation in Caki-1 Cells in the Absence of HGF (AVG CPM), antibody dose 0.1 ng/mL (human c-Met [1]) [CPM] | 3H-Thymidine Incorporation in Caki-1 Cells in the Absence of HGF (AVG CPM), antibody dose 0.4 ng/mL (human c-Met [1]) [CPM] | 3H-Thymidine Incorporation in Caki-1 Cells in the Absence of HGF (AVG CPM), antibody dose 2.6 ng/mL (human c-Met [1]) [CPM] | 3H-Thymidine Incorporation in Caki-1 Cells in the Absence of HGF (AVG CPM), antibody dose 15.4 ng/mL (human c-Met [1]) [CPM] | 3H-Thymidine Incorporation in Caki-1 Cells in the Absence of HGF (AVG CPM), antibody dose 92.6 ng/mL (human c-Met [1]) [CPM] | 3H-Thymidine Incorporation in Caki-1 Cells in the Absence of HGF (AVG CPM), antibody dose 555.6 ng/mL (human c-Met [1]) [CPM] | 3H-Thymidine Incorporation in Caki-1 Cells in the Absence of HGF (AVG CPM), antibody dose 3333.3 ng/mL (human c-Met [1]) [CPM] | 3H-Thymidine Incorporation in Caki-1 Cells in the Absence of HGF (AVG CPM), antibody dose 20000.0 ng/mL (human c-Met [1]) [CPM] | 3H-Thymidine Incorporation in Primary Human Hepatocytes in the Absence of HGF (average), dose 0.0032 ug/mL (human c-Met [2]) | 3H-Thymidine Incorporation in Primary Human Hepatocytes in the Absence of HGF (average), dose 0.016 ug/mL (human c-Met [2]) | 3H-Thymidine Incorporation in Primary Human Hepatocytes in the Absence of HGF (average), dose 0.08 ug/mL (human c-Met [2]) | 3H-Thymidine Incorporation in Primary Human Hepatocytes in the Absence of HGF (average), dose 0.4 ug/mL (human c-Met [2]) | 3H-Thymidine Incorporation in Primary Human Hepatocytes in the Absence of HGF (average), dose 2 ug/mL (human c-Met [2]) | 3H-Thymidine Incorporation in Primary Human Hepatocytes in the Absence of HGF (average), dose 10 ug/mL (human c-Met [2])
1 | B1 | 17700 | 13600 | 13300 | 13800 | 14700 | 14500 | 15800 | 16100 | 693 | 892 | 1280 | 1750 | 1870 | 2150
2 | B2 | 15900 | 14600 | 14900 | 14600 | 15300 | 16600 | 17900 | 18600 | 726 | 920 | 1460 | 1910 | 2570 | 3160

— patent publication US20100129369A1 (Eli Lilly, published 2010)
